This passage reports Kd results from PMC4236683 (2014).

The target in one assay is PlexinA1 (Mus musculus, UniProt P70206). Nature of the assay: saturation binding.
A further assay concerns the target T1, PlexinA2 (Mus musculus, UniProt P70207).
T1 chain: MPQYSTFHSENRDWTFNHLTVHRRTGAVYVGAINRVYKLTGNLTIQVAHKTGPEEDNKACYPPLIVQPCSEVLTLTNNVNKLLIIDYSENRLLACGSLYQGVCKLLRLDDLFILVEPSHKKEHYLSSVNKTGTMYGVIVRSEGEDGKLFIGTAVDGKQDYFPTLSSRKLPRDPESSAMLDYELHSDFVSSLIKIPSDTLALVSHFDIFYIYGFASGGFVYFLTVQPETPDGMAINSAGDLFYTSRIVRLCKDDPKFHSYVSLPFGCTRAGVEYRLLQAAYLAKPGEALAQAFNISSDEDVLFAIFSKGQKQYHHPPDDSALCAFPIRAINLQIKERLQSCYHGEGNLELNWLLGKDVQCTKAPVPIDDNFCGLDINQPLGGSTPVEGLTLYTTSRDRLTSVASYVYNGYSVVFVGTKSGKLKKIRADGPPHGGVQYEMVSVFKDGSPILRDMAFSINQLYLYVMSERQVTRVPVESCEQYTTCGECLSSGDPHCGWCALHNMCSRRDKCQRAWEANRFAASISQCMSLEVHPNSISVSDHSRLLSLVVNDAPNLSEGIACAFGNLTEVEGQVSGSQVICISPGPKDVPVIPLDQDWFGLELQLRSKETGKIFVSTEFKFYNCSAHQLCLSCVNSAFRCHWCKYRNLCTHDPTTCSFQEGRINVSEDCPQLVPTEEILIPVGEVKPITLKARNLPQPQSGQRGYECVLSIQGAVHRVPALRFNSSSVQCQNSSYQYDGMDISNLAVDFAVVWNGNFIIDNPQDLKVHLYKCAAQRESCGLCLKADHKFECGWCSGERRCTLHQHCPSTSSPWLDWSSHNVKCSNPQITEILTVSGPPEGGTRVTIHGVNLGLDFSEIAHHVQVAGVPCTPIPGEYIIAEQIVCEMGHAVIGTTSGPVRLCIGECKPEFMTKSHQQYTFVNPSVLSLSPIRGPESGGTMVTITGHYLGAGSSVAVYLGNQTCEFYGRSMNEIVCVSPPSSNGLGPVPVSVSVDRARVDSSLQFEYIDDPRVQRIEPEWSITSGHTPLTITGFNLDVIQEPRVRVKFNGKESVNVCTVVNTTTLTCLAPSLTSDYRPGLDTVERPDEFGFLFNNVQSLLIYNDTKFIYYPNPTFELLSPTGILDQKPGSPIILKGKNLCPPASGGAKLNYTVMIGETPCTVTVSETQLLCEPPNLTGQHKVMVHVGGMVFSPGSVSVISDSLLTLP
Kind of assay: saturation binding.

PlexinA1, sequence (P70206 28-1242): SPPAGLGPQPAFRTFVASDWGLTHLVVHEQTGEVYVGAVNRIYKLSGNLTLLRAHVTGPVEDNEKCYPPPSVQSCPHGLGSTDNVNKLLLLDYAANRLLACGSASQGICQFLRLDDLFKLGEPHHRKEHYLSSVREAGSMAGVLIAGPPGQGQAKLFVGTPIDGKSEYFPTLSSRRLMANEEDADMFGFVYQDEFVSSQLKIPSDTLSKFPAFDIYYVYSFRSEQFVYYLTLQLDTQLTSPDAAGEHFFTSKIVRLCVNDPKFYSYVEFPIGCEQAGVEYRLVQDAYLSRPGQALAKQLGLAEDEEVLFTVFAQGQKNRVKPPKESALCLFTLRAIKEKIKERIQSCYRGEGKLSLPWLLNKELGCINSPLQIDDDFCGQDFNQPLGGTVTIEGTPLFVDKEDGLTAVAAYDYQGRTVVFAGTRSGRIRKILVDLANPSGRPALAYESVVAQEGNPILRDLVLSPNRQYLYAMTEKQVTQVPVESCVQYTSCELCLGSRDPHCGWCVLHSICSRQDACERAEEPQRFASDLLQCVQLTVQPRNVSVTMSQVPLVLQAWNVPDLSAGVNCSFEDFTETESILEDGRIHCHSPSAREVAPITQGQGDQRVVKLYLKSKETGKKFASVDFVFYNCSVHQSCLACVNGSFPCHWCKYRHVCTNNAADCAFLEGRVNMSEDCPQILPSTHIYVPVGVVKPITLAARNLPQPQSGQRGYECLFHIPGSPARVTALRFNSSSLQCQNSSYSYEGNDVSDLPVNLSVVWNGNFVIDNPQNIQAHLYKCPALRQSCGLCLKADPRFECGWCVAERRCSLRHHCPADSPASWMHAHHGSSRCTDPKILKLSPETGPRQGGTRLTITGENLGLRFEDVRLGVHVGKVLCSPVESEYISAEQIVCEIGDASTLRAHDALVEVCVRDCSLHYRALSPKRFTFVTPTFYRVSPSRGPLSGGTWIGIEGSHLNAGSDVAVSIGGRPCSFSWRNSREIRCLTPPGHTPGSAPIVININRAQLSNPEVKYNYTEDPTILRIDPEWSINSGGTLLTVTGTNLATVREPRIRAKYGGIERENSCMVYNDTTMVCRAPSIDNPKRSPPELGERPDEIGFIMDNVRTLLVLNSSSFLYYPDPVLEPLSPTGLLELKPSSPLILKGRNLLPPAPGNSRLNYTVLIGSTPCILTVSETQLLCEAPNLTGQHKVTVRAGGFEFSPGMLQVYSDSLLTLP

B1: Sema5A-Fc (protein)
chain: PETQDPAKCQRAEHPVVSYKEIGPWLREFRAENAVDFSRLTFDPGQKELVVGARNYLFRLELEDLSLIQAVEWECDEATKKACYSKGKSKEECQNYIRVLLVGGDRLFTCGTNAFTPVCTIRSLSNLTEIHDQISGMARCPYSPQHNSTALLTASGELYAATAMDFPGRDPAIYRSLGTLPPLRTAQYNSKWLNEPNFVSSYDIGNFTYFFFRENAVEHDCGKTVFSRPARVCKNDIGGRFLLEDTWTTFMKARLNCSRPGEVPFYYNELQGTFFLPELDLIYGIFTTNVNSIASSAVCVFNLSAISQAFNGPFKYQENSRSAWLPYPNPNPNFQCGTMDQGLYVNLTERNLQDAQKFILMHEVVQPVTTVPSFMEDNSRFSHLAVDVVQGRETLVHIIYLGTDYGTIKKVRAPLSQSSGSCLLEEIELFPERRSEPIRSLQILHSQSVLFVGLQEHVAKIPLKRCHFHQTRSACIGAQDPYCGWDAVMKKCTSLEESLSMTQWDQSIPTCPTRNLTVDGSFGPWSPWTPCTHTDGTAVGSCLCRSRSCDRPAPQCGGWQCEGPRMEITNCSRNGGWTPWTSWSPCSTTCGIGFQVRQRSCSNPTPRHGGRVCVGQNREERYCNEHLLCPPHVFWTGWGPWERCTAQCGGGIQARRRTCENGPDCAGSNVEYHPCNTNACPELKKTTPWTPWTPVNISDNGGHYEQRFRYTCKARLPDPNLLEVGRQRIEMRYCSSDGTSGCSTDGLSGDFLRAGRYSAHTVNGAWSAWTSWSQCSRDCSRGIRNRKRVCNNPEPKFGGMPCLGPSLEFQECNILPCPVDGVWSCWSSWSKCSATCGGGHYMRTRSCSNPAPAYGGDICLGLHTEEALCNTQTCPESWSEWSDWSVCDASGTQVRARQCILLFPVGSQCSGNTTESRPCVFDSNFIPEVSVARSSSVEEKRCGEFNMFHM
As for B1, the Kd with PlexinA1 and with PlexinA2 was approximately 11.5 nM each time.
